Results taken from the supplement of paper PMC10567573.

B1: FBF1 (parent)
chain: QLQCSPAELQAELLHSQARLAELE
B2: ZNF75A (parent)
chain: RTHTGEQPYTCSICRRNFSRRSSL

Variants of: B1
Experiment: protein stability index of a GFP-peptide fusion (GPS, HEK-293T) (PSI 1-6); higher = more stable
Details: c terminus: a fixed tail appended
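Further: lentivirally expressed fusions sorted by FACS into six bins by GFP to DsRed ratio, PSI derived from sequencing read proportions per bin multiplied by bin number.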

Protein stability index: each site, then its substitutions
E24: L 2.41, P 3.18, D 2.45, G 3.23, C 3.22, K 3.44, I 3.06, M 2.83, Q 3.29, T 3.54, H 3.56, A 3.75, R 3.16, S 2.99, W 2.47, V 2.81, Y 2.36, N 3.29, F 2.32
E22: Y 2.33, C 2.67, A 2.83, R 2.92, V 2.54, P 3.39, N 3.21, W 2.76, H 2.39, L 1.98, G 2.91, Q 2.53, T 2.34, D 2.72, M 3.12, S 2.48, K 2.99, F 2.25, I 2.16
L23: V 3.03, G 4.71, Q 4.98, A 4.59, D 5.07, M 3.38, H 4, F 2.75, Y 3.26, K 4.65, E 4.48, N 4.79, I 2.59, S 4.84, P 4.03, W 3.71, T 4.18, C 3.66, R 4.14
L20: N 4.96, V 3.34, P 4.76, W 4.22, R 4.62, S 4.7, T 4.66, M 3.87, Y 4.12, Q 5.33
A21: N 3.41, W 2.8, L 2.63, D 2.68, Y 2.31, S 3.31, R 3.25, V 3.14, E 2.61, K 3.29, C 3.01, M 2.31, H 2.98, P 3.75, Q 2.67, T 2.86, I 2.55, G 3.79, F 2.72

Variants of: B2
Experiment: as above
Details: c terminus: a fixed tail appended

Protein stability index, by site and new letter:
T10: W 2.63, M 3.48, P 3.09, C 2.63, E 2.37, G 2.18, D 3.48, I 3.52, Q 2.32, N 2.67, R 2.57, V 3.85, A 2.85, L 2.88, Y 2.5, K 2.43, F 2.71, H 2.85, S 2.01
Y9: A 2.68, I 2.71, V 2.58, D 2.92, K 2.17, N 2.56, R 2.46, T 2.51, G 3.29, P 2.69, S 2.55, L 2.39, C 4.17, M 2.27, E 3.15, F 2.64, H 3.02, W 3.02, Q 2.32
G5: I 3.82, R 3.07, W 2.55, H 3.52, L 2.73, E 3.45, P 2.78, C 4.64, F 3.38, Q 2.81, N 2.81, K 2.74, S 2.61, Y 2.21, A 2.98, M 2.86, V 2.76, D 3.06, T 3.25
E6: N 2.5, A 2.86, R 2.58, K 2.97, G 2.55, I 3.05, S 2.3, T 2.94, F 3.33, Q 2.62, C 3.96, W 2.02, Y 2.44, L 2.52, M 2.5, P 2.63, D 2.49, V 1.93, H 3.12
T4: P 2.4, I 3.36, L 2.96, H 3.03, E 3.27, C 2.15, M 2.66, A 2.8, N 3.85, W 2.1, V 3.29, Y 3.04, Q 2.33, D 3.31, K 2.77, R 3.08, F 3.28, G 2.91, S 3.14
Q7: I 2.63, Y 2.36, K 2.59, P 2.57, T 2.49, L 2.7, R 2.96, H 2.63, N 2.6, E 3.43, V 2.41, W 2.83, G 2.45, C 4.67, F 2.8, D 3.42, A 3.14, S 2.24, M 2.68
C14: A 3.67, D 3.7
S12: Q 2.61, P 3.14, W 2.21, D 3.1, I 2.53, F 2.83, T 2.82, L 2.04, E 2.26, Y 2.81, H 3.13, V 2.98, K 2.63, C 2.4, R 3.07, A 2.21, G 2.38, N 2.52, M 2.41
T2: D 3.02, A 3.58, H 3.33, F 3.15, N 2.52, M 2.68, Q 2.38, V 2.88, I 2.63, W 2.17, L 2.82, G 2.77, S 2.53, Y 2.81, C 3.17, E 2.78, R 3.46, K 2.47
I13: R 2.96, C 2.71, N 3.72, W 2.51, M 2.21, S 2.71, L 2.25, Q 2.74, A 2.54, E 2.71, D 2.65, Y 1.96, P 3.44, H 2.81, K 3.5, T 2.7, G 2.42, F 2.65, V 3.18
C11: I 3.79, E 4.09, G 3.37, N 4, K 3.93, A 3.92, V 3.61, L 3.61, W 3.77, R 3.74, T 4.58, P 4.22, F 3.73, M 4.07, S 3.86, H 3.94, Q 4.39, D 4.34, Y 3.3
P8: F 3.09, R 2.35, H 3.19, M 3.06, E 3.95, G 3.4, I 2.99, W 3.05, C 2.52, K 3.13, S 2.81, D 3.4, V 3.4, N 3.01, T 3.76, L 2.87, Q 2.85, A 2.97, Y 3.16
R1: D 3.34, A 3.23, T 3.14, W 2.67, L 2.28, Y 2.46, F 2.12, E 3.62, S 3.07, H 3.93, C 5.09, M 2.33, N 3.26, V 2.26, P 3.15, G 3.82, K 2.99, I 3.06, Q 2.4
H3: D 3.18, R 3.47, A 2.69, K 3.06, F 3.25, L 2.75, N 3.82, S 3.16, Q 2.64, V 2.65, M 2.57, C 2.85, I 3.08, T 2.76, W 2.15, P 3.17, G 2.76, Y 2.73, E 3.1
